Assay results published in patent US20230210927A1.

Target: E1B55K protein (adenovirus early region 1B-55 kDa) (adenovirus type 5) (UniProt P03243)
Experiment: cell-based or functional assay

Sequence of UniProt P03243 (P03243 whole entry): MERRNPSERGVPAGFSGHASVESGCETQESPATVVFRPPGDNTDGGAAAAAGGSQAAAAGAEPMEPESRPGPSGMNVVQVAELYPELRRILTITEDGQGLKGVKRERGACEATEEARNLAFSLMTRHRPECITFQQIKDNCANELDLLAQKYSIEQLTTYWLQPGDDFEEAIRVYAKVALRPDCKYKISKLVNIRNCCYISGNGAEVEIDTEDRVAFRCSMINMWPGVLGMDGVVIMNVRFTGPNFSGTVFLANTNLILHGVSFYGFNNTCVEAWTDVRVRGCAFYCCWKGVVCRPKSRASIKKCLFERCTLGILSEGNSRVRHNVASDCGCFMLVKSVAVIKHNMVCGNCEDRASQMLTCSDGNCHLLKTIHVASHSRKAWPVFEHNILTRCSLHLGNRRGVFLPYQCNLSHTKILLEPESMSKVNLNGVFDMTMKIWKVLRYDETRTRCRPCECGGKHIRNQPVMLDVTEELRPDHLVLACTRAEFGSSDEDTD

**Q.** How did the luminescence intensity due to luciferase activity (pGL2-p53 promoter, Dual-Luciferase Reporter Assay) in the MSC-TERT-tetoneE1B55K cell line with doxycycline; 4-fold increase with E1B55K alone turn out when E4orf6 protein (adenovirus) was run?
**A.** The luminescence intensity due to luciferase activity (pGL2-p53 promoter, Dual-Luciferase Reporter Assay) in the MSC-TERT-tetoneE1B55K cell line with doxycycline; 4-fold increase with E1B55K alone was under 1.5 fold.
